Assays:
[1] = target: T1, MutSβ (MSH2-MSH3) (human, UniProt P43246 2-934; P20585 1-1137); assay: SPRS, MutLα-MutSβ-DNA ternary complex
T1 construct: mature;range 1-1137; Recombinant heterodimer from baculovirus-infected Sf9 cells; 232 kDa; also called wild type MutSβ; MSH2-MSH3 heterodimer

[2] = target: T1, MutSβ (MSH2-MSH3); assay: SPRS, MutLα varied with 0.10 µM MutSβ on heteroduplex DNA, 1 mM ATP
Text: MutSβ PIP box mutants are defective in MutLα interaction—Interaction between MutS and MutL homologs has been documented in several systems (3, 4), but the nature of the human MutLα-MutSβ complex has not been addressed. We have therefore used SPRS to examine the capacity of MutSβ and its PIP box mutants to support formation of a MutLα-MutSβ-DNA ternary complex. With reference to FIG. 2A, ATP-dependent assembly of the MutLα-MutSβ-DNA ternary complex was scored by SPRS using a 200 bp -TG- I/D heteroduplex (solid lines) or homoduplex (dashed lines) DNA. […] Similar analyses were performed with MutSβΔ28 (middle panel) and MutSβ-F27A-F28A. […] This mass increase was not observed in the absence of ATP (not shown), and we were unable to detect DNA binding by MutLα alone (not shown). The latter results are consistent with previous findings that assembly of ternary complexes involving MutL and MutS homologs is ATP-dependent and that DNA binding by MutL homologs is limited at physiological ionic strength (17, 25, 35-38). The lifetime of the ternary complex is also short, with 80% dissociating with a t_{1/2} of 7s. […] Complex formation on homoduplex DNA (open symbols) was not saturable.

T1 sequence (P43246 2-934 limits assumed, chain 1 of 2): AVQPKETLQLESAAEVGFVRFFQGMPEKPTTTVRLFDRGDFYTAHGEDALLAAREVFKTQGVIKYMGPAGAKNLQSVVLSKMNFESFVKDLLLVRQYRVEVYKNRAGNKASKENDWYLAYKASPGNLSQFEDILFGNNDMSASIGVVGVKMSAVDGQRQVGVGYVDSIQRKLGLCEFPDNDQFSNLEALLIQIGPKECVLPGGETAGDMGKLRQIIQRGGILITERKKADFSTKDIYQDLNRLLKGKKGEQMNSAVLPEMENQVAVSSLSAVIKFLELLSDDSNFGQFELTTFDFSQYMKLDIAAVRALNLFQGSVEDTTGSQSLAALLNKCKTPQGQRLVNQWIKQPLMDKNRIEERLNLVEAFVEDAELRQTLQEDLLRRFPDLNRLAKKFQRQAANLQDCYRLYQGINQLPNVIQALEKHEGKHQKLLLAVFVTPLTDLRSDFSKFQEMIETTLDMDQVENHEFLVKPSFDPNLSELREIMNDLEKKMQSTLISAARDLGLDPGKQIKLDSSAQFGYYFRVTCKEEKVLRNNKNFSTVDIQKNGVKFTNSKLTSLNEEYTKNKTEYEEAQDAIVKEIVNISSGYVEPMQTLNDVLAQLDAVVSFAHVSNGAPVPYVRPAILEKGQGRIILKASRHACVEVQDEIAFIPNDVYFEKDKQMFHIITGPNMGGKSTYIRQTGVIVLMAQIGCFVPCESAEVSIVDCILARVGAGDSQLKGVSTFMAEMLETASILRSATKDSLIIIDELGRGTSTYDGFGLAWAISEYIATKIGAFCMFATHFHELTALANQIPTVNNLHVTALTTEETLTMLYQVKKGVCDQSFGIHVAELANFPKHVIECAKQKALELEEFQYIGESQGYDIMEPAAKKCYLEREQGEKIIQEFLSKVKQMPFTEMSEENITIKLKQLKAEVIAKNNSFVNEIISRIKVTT
T1 sequence (P20585 whole entry, chain 2 of 2): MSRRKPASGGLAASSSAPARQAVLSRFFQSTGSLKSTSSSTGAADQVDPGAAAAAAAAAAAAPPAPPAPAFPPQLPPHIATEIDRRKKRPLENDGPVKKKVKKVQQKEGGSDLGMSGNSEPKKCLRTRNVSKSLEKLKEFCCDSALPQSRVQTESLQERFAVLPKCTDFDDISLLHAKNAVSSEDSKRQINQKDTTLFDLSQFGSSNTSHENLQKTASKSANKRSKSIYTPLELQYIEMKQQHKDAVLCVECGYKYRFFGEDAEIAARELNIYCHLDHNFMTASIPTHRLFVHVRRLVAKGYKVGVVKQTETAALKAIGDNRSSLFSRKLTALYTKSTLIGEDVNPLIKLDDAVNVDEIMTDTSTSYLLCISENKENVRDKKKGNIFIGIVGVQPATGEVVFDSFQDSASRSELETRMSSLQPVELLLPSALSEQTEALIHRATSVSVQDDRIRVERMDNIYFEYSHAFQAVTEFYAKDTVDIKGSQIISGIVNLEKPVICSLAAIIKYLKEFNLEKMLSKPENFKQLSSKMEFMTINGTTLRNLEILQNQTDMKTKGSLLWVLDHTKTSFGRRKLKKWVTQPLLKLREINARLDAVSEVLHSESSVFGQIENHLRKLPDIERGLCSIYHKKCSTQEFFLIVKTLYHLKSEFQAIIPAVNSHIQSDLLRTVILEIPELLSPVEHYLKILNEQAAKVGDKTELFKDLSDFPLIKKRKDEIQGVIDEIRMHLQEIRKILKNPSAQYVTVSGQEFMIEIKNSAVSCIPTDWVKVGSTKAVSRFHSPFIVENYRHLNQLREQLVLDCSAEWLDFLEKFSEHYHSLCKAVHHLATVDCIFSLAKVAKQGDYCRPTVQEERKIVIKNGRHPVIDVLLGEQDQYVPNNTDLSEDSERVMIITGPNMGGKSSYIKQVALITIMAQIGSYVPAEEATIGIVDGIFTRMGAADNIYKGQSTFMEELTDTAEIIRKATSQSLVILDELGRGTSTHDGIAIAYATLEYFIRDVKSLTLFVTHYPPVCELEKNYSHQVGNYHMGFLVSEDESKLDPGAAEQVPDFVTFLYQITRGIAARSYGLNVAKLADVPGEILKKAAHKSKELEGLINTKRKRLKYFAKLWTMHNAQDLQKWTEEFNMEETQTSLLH

t1/2 of dissociation of the ternary complex [1]: 7 s
Kd [2]: 400 nM
B1: MutLα (MLH1-PMS2) (enzyme, human)
chain 1: MSFVAGVIRRLDETVVNRIAAGEVIQRPANAIKEMIENCLDAKSTSIQVIVKEGGLKLIQIQDNGTGIRKEDLDIVCERFTTSKLQSFEDLASISTYGFRGEALASISHVAHVTITTKTADGKCAYRASYSDGKLKAPPKPCAGNQGTQITVEDLFYNIATRRKALKNPSEEYGKILEVVGRYSVHNAGISFSVKKQGETVADVRTLPNASTVDNIRSIFGNAVSRELIEIGCEDKTLAFKMNGYISNANYSVKKCIFLLFINHRLVESTSLRKAIETVYAAYLPKNTHPFLYLSLEISPQNVDVNVHPTKHEVHFLHEESILERVQQHIESKLLGSNSSRMYFTQTLLPGLAGPSGEMVKSTTSLTSSSTSGSSDKVYAHQMVRTDSREQKLDAFLQPLSKPLSSQPQAIVTEDKTDISSGRARQQDEEMLELPAPAEVAAKNQSLEGDTTKGTSEMSEKRGPTSSNPRKRHREDSDVEMVEDDSRKEMTAACTPRRRIINLTSVLSLQEEINEQGHEVLREMLHNHSFVGCVNPQWALAQHQTKLYLLNTTKLSEELFYQILIYDFANFGVLRLSEPAPLFDLAMLALDSPESGWTEEDGPKEGLAEYIVEFLKKKAEMLADYFSLEIDEEGNLIGLPLLIDNYVPPLEGLPIFILRLATEVNWDEEKECFESLSKECAMFYSIRKQYISEESTLSGQQSEVPGSIPNSWKWTVEHIVYKALRSHILPPKHFTEDGNILQLANLPDLYKVFERC
chain 2: MERAESSSTEPAKAIKPIDRKSVHQICSGQVVLSLSTAVKELVENSLDAGATNIDLKLKDYGVDLIEVSDNGCGVEEENFEGLTLKHHTSKIQEFADLTQVETFGFRGEALSSLCALSDVTISTCHASAKVGTRLMFDHNGKIIQKTPYPRPRGTTVSVQQLFSTLPVRHKEFQRNIKKEYAKMVQVLHAYCIISAGIRVSCTNQLGQGKRQPVVCTGGSPSIKENIGSVFGQKQLQSLIPFVQLPPSDSVCEEYGLSCSDALHNLFYISGFISQCTHGVGRSSTDRQFFFINRRPCDPAKVCRLVNEVYHMYNRHQYPFVVLNISVDSECVDINVTPDKRQILLQEEKLLLAVLKTSLIGMFDSDVNKLNVSQQPLLDVEGNLIKMHAADLEKPMVEKQDQSPSLRTGEEKKDVSISRLREAFSLRHTTENKPHSPKTPEPRRSPLGQKRGMLSSSTSGAISDKGVLRPQKEAVSSSHGPSDPTDRAEVEKDSGHGSTSVDSEGFSIPDTGSHCSSEYAASSPGDRGSQEHVDSQEKAPKTDDSFSDVDCHSNQEDTGCKFRVLPQPTNLATPNTKRFKKEEILSSSDICQKLVNTQDMSASQVDVAVKINKKVVPLDFSMSSLAKRIKQLHHEAQQSEGEQNYRKFRAKICPGENQAAEDELRKEISKTMFAEMEIIGQFNLGFIITKLNEDIFIVDQHATDEKYNFEMLQQHTVLQGQRLIAPQTLNLTAVNEAVLIENLEIFRKNGFDFVIDENAPVTERAKLISLPTSKNWTFGPQDVDELIFMLSDSPGVMCRPSRVKQMFASRACRKSVMIGTALNTSEMKKLITHMGEMDHPWNCPHGRPTMRHIANLGVISQN
notes: Purified as in Iyer et al. (21)

— patent US20110195849A1 (DUKE UNIVERSITY, published 2011)
